Results published in US20220290132.

Molecular target: SpCas9 nuclease (Streptococcus pyogenes) (UniProt Q99ZW2)
Assay: EMSA
Conditions: 30 nM Cas9, 30 nM RNA, NEBuffer 3.1, 25 C then 37 C; negative control

Chain of UniProt Q99ZW2 (Q99ZW2 whole entry): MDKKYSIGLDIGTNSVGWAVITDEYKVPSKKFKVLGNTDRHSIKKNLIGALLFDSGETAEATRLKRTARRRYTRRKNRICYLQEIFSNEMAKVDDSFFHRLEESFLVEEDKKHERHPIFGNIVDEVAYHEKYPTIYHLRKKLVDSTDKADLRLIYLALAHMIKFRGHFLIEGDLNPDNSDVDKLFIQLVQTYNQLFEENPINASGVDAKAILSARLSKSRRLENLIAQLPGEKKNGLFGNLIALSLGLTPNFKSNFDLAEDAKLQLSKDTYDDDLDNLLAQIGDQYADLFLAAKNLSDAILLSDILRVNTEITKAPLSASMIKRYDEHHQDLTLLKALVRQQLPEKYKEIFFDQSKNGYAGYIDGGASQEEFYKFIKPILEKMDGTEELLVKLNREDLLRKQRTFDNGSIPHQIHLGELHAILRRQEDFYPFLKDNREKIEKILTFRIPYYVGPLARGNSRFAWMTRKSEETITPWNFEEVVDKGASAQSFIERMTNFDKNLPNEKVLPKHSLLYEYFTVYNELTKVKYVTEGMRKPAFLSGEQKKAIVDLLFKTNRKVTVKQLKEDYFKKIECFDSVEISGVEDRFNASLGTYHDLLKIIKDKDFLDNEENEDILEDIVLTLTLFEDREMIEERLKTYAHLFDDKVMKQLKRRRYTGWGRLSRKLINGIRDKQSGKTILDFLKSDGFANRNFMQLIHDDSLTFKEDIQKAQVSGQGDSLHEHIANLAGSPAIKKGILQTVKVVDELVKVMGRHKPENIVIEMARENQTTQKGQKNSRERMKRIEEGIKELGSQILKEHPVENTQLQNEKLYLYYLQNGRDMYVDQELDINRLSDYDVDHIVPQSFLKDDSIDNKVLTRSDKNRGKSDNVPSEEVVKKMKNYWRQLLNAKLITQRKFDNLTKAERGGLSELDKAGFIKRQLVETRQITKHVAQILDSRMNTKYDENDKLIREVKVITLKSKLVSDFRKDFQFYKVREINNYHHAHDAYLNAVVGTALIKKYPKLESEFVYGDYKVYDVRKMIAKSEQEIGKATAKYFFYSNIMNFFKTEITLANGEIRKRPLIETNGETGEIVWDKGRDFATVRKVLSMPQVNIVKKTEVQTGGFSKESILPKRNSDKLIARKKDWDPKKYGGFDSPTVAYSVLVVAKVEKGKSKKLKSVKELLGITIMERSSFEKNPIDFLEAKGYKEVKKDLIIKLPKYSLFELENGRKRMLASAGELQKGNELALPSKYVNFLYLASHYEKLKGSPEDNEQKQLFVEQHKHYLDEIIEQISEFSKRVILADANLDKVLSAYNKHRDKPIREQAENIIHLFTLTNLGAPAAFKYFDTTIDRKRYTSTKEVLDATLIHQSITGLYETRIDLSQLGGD

“non-CRISPR structured RNA negative control” showed a binding signal of 55 % bound.
